According to patent publication US20260028403A1 (Zymeworks, published 2026):

B1: v37683 (trispecific antibody, human IgG1, kappa, L234A L235A)
heavy 1: not shown
heavy 2: QVQLVESGGGLVQPGGSLRLSCSVSGIDLSSNPMIWVRQAPGKGLQYIGIIDTDGSTYYADWAKGRFTISKDSTTVYLQINSPRAEDTAVYYCARRLHGSSNGYYDDLWGQGTLVTVSSGGGGSGGGGSGGGGSGGGGSDGQMTQSPSSVSASVGDRVTITCQASQSIYSYLSWYQQKPGQRPKLLIYKASTLASGVPSRFSGSGSGTDFTLTISSVQPEDFATYYCQQGYTVTNVDKNTFGGGTKVEIKAAEPKSSDKTHTCPPCPAPEAAGGPSVFLFPPKPKDTLMISRTPEVTCVVVSVSHEDPEVKFNWYVDGVEVHNAKTKPREEQYNSTYRVVSVLTVLHQDWLNGKEYKCKVSNKALPAPIEKTISKAKGQPREPQVYVLPPSRDELTKNQVSLLCLVKGFYPSDIAVEWESNGQPENNYLTWPPVLDSDGSFFLYSKLTVDKSRWQQGNVFSCSVMHEALHNHYTQKSLSLSPG
light: DIQMTQSPSSLSASVGDRVTITCRASESVEYYVTSLMQWYQQKPGKAPKLLIYAASNVDSGVPSRFSGSGSGTDFTLTISSLQPEDIATYYCQQSRKVPFTFGGGTKVEIKRTVAAPSVFIFPPSDEQLKSGTASVVCLLNNFYPREAKVQWKVDNALQSGNSQESVTEQDSKDSTYSLSSTLTLSKADYEKHKVYACEVTHQGLSSPVTKSFNRGEC
notes: also called v37638 format, CD28 VH P1058A
B2: v37641 (trispecific antibody, human IgG1, kappa, L234A L235A)
heavy 1: QVQLVESGGGLVQPGGSLRLSCSVSGIDLSSNPMIWVRQAPGKGLQYIGIIDTDGSTYYADWAKGRFTISKDSTTVYLQINSPRAEDTAVYYCARRLHGSSNGYYDDLWGQGTLVTVSSGGGGSGGGGSGGGGSGGGGSDGQMTQSPSSVSASVGDRVTITCQASQSIYSYLSWYQQKPGQRPKLLIYKASTLASGVPSRFSGSGSGTDFTLTISSVQPEDFATYYCQQGYTVTNVDKNTFGGGTKVEIKGGGGSGQVQLQESGPGLVKPSETLSLTCAVSGFSLTSYGVHWIRQPPGKGLEWLGVIWPGGGTNFNSALMSRLTISEDTSKNQVSLKLSSVTAADTAVYYCARDRAYGNYLYAMDYWGQGTLVTVSSASTKGPSVFPLAPSSKSTSGGTAALGCLVKDYFPEPVTVSWNSGALTSGVHTFPAVLQSSGLYSLSSVVTVPSSSLGTQTYICNVNHKPSNTKVDKKVEPKSCDKTHTCPPCPAPEAAGGPSVFLFPPKPKDTLMISRTPEVTCVVVSVSHEDPEVKFNWYVDGVEVHNAKTKPREEQYNSTYRVVSVLTVLHQDWLNGKEYKCKVSNKALPAPIEKTISKAKGQPREPQVYVYPPSRDELTKNQVSLTCLVKGFYPSDIAVEWESNGQPENNYKTTPPVLDSDGSFALVSKLTVDKSRWQQGNVFSCSVMHEALHNHYTQKSLSLSPGGGGGSGNFMLTQPHSVSESPGKTVTISCKRNTGNIGSNYVNWYQQHEGSSPTTIIYRNDKRPDGVSDRFSGSIDRSSKSASLTISNLKTEDEADYFCQSYSSGFIFGGGTKLTVLGGGGSGGGGSGGGGSGGGGSEVQLVESGGGLVQPGGSLRLSCAASGVTFNYYGMSWIRQAPGKGLEWVASITSSGGRIYYPDSVKGRFTISRENTQKTLYLQMNSLRAEDTAVYYCTLDGRDGWVAYWGQGTLVTVSS
heavy 2: EPKSSDKTHTCPPCPAPEAAGGPSVFLFPPKPKDTLMISRTPEVTCVVVSVSHEDPEVKFNWYVDGVEVHNAKTKPREEQYNSTYRVVSVLTVLHQDWLNGKEYKCKVSNKALPAPIEKTISKAKGQPREPQVYVLPPSRDELTKNQVSLLCLVKGFYPSDIAVEWESNGQPENNYLTWPPVLDSDGSFFLYSKLTVDKSRWQQGNVFSCSVMHEALHNHYTQKSLSLSPG
light: DIQMTQSPSSLSASVGDRVTITCRASESVEYYVTSLMQWYQQKPGKAPKLLIYAASNVDSGVPSRFSGSGSGTDFTLTISSLQPEDIATYYCQQSRKVPFTFGGGTKVEIKRTVAAPSVFIFPPSDEQLKSGTASVVCLLNNFYPREAKVQWKVDNALQSGNSQESVTEQDSKDSTYSLSSTLTLSKADYEKHKVYACEVTHQGLSSPVTKSFNRGEC
notes: second heavy chain is Fc only; Het Fc, FcKO; also called Cldn18.2xCD28xCD3 trispecific
B3: v37685 (trispecific antibody, human IgG1, kappa, L234A L235A)
heavy 1: not shown
heavy 2: QVQLVESGGGLVQPGGSLRLSCSVSGIDLSSNPMIWVRQAPGKGLQYIGIIDTDGSTYYADWAKGRFTISKDSTTVYLQINSPRAEDTAVYYCARRLHGSSNGYYDDLWGQGTLVTVSSGGGGSGGGGSGGGGSGGGGSDGQMTQSPSSVSASVGDRVTITCQASQSIYSYLSWYQQKPGQRPKLLIYKASTLASGVPSRFSGSGSGTDFTLTISSVQPEDFATYYCQQGYTVTNVDKNTFGGGTKVEIKAAEPKSSDKTHTCPPCPAPEAAGGPSVFLFPPKPKDTLMISRTPEVTCVVVSVSHEDPEVKFNWYVDGVEVHNAKTKPREEQYNSTYRVVSVLTVLHQDWLNGKEYKCKVSNKALPAPIEKTISKAKGQPREPQVYVLPPSRDELTKNQVSLLCLVKGFYPSDIAVEWESNGQPENNYLTWPPVLDSDGSFFLYSKLTVDKSRWQQGNVFSCSVMHEALHNHYTQKSLSLSPG
light: DIQMTQSPSSLSASVGDRVTITCRASESVEYYGTSLMQWYQQKPGKAPKLLIYAASNVDSGVPSRFSGSGSGTDFTLTISSLQPEDIATYYCQQSRKVPFTFGGGTKVEIKRTVAAPSVFIFPPSDEQLKSGTASVVCLLNNFYPREAKVQWKVDNALQSGNSQESVTEQDSKDSTYSLSSTLTLSKADYEKHKVYACEVTHQGLSSPVTKSFNRGEC
notes: also called v37638 format, CD28 VL V1035G
B4: v37684 (trispecific antibody, human IgG1, kappa, L234A L235A)
heavy 1: not shown
heavy 2: QVQLVESGGGLVQPGGSLRLSCSVSGIDLSSNPMIWVRQAPGKGLQYIGIIDTDGSTYYADWAKGRFTISKDSTTVYLQINSPRAEDTAVYYCARRLHGSSNGYYDDLWGQGTLVTVSSGGGGSGGGGSGGGGSGGGGSDGQMTQSPSSVSASVGDRVTITCQASQSIYSYLSWYQQKPGQRPKLLIYKASTLASGVPSRFSGSGSGTDFTLTISSVQPEDFATYYCQQGYTVTNVDKNTFGGGTKVEIKAAEPKSSDKTHTCPPCPAPEAAGGPSVFLFPPKPKDTLMISRTPEVTCVVVSVSHEDPEVKFNWYVDGVEVHNAKTKPREEQYNSTYRVVSVLTVLHQDWLNGKEYKCKVSNKALPAPIEKTISKAKGQPREPQVYVLPPSRDELTKNQVSLLCLVKGFYPSDIAVEWESNGQPENNYLTWPPVLDSDGSFFLYSKLTVDKSRWQQGNVFSCSVMHEALHNHYTQKSLSLSPG
light: DIQMTQSPSSLSASVGDRVTITCRASESVEYYVTSLMQWYQQKPGKAPKLLIYAASNVDSGVPSRFSGSGSGTDFTLTISSLQPEDIATYYCQQSRKVPFTFGGGTKVEIKRTVAAPSVFIFPPSDEQLKSGTASVVCLLNNFYPREAKVQWKVDNALQSGNSQESVTEQDSKDSTYSLSSTLTLSKADYEKHKVYACEVTHQGLSSPVTKSFNRGEC
notes: also called v37638 format, CD28 VH G1064S
B5: v37686 (trispecific antibody, human IgG1, kappa, L234A L235A)
heavy 1: not shown
heavy 2: QVQLVESGGGLVQPGGSLRLSCSVSGIDLSSNPMIWVRQAPGKGLQYIGIIDTDGSTYYADWAKGRFTISKDSTTVYLQINSPRAEDTAVYYCARRLHGSSNGYYDDLWGQGTLVTVSSGGGGSGGGGSGGGGSGGGGSDGQMTQSPSSVSASVGDRVTITCQASQSIYSYLSWYQQKPGQRPKLLIYKASTLASGVPSRFSGSGSGTDFTLTISSVQPEDFATYYCQQGYTVTNVDKNTFGGGTKVEIKAAEPKSSDKTHTCPPCPAPEAAGGPSVFLFPPKPKDTLMISRTPEVTCVVVSVSHEDPEVKFNWYVDGVEVHNAKTKPREEQYNSTYRVVSVLTVLHQDWLNGKEYKCKVSNKALPAPIEKTISKAKGQPREPQVYVLPPSRDELTKNQVSLLCLVKGFYPSDIAVEWESNGQPENNYLTWPPVLDSDGSFFLYSKLTVDKSRWQQGNVFSCSVMHEALHNHYTQKSLSLSPG
light: DIQMTQSPSSLSASVGDRVTITCRASESVEYYVTSLMQWYQQKPGKAPKLLIYAASNVESGVPSRFSGSGSGTDFTLTISSLQPEDIATYYCQQSRKVPFTFGGGTKVEIKRTVAAPSVFIFPPSDEQLKSGTASVVCLLNNFYPREAKVQWKVDNALQSGNSQESVTEQDSKDSTYSLSSTLTLSKADYEKHKVYACEVTHQGLSSPVTKSFNRGEC
notes: also called v37638 format, CD28 VL D1068E

Key:
[1] = target: T1, CD28 on primary human T cells (human, UniProt P10747 19-220); assay: cell-based or functional assay
[2] = target: T1, CD28 on primary human T cells; assay: cell-based or functional assay; remark: listed apart in the source
[3] = target: T2, Recombinant human/cynomolgus/rhesus macaque CD28 mouse IgG2a Fc fusion protein (Acro Biosystems) (human/cynomolgus/rhesus macaque, UniProt P10747 19-152); assay: SPR, in-format anti-CD28 variants, huCD28
T2 construct: bought; also called huCD28

[4] = target: T3, Recombinant human CD3 epsilon/delta heterodimer, his tag protein (Acro Biosystems) (human, UniProt P07766 23-126; P04234 22-105); assay: SPR Biacore T200, CD3 e/d-his on CM5, construct injected, 1:1 model;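 note: measured at 25 °C in HEPES-buffered saline with EDTA and Tween 20 at pH 7.4, values are means of three independent runs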
T3 construct: bought
Procedure: All SPR binding experiments were carried out using a BiacoreT200 instrument at 25° C. with 10 mM HEPES, 150 mM NaCl, 3 mM EDTA, and 0.05% Tween 20 at pH 7.4. Recombinant human CD3 epsilon/delta heterodimer, his tag protein (Acro Biosystems) was covalently immobilized on CM5 sensor chips by amine coupling. Purified antibody constructs to be tested were indirectly captured on the sensor chip by binding to the recombinant CD3 protein when injected at 30 μL/min for 140-500 s following a dissociation for 600-1200 s. Resultant kₒₙ, koff and KD values were determined from fitting the sensorgrams using the 1:1 binding model with reported values as the mean of three independent runs.

[5] = target: T2, Recombinant human/cynomolgus/rhesus …; assay: SPR Biacore T200, CD28-mIgG2a Fc on CM5, construct injected, 1:1 model;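 note: fc fusion captured by amine coupling, run at 25 °C in HEPES buffer pH 7.4, association 140-500 s then dissociation 600-1200 s, values averaged over three independent runs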

Binder | IC50, T cell-dependent cytotoxicity on SNU 601 [1] | Maximum Killing (%), SNU 601 [1] | IL-2 maximum cytokine, T cells alone [2] | IL-2 maximum cytokine, T cells with SNU 601 cells [2] | TNFa maximum cytokine, T cells alone [2] | TNFa maximum cytokine, T cells with SNU 601 cells [2] | Fold-change from WT [3] | Kd [3] | koff [3] | kon [3] | Kd [4] | koff [4] | kon [4] | Kd [5] | koff [5] | kon [5]
B1 | 0.25 pM | 88.6% | 82.9 pg/mL | 4030 pg/mL | 25 pg/mL | 513 pg/mL | 2.2 fold | 48.6 nM | 0.00466 s⁻¹ | 95800 M⁻¹ s⁻¹ |  |  |  |  |  | 
B2 |  |  |  |  |  |  |  |  |  |  | 225 nM | 0.0134 s⁻¹ | 60800 M⁻¹ s⁻¹ | 31.8 nM | 0.00206 s⁻¹ | 66500 M⁻¹ s⁻¹
B3 | 0.81 pM | 88.7% | 190 pg/mL | 3400 pg/mL | 25 pg/mL | 409 pg/mL | 28.4 fold | 631 nM | 0.029 s⁻¹ | 67900 M⁻¹ s⁻¹ |  |  |  |  |  | 
B4 | 0.34 pM | 89.3% | 293 pg/mL | 3430 pg/mL | 56.2 pg/mL | 516 pg/mL | 6.4 fold | 143 nM | 0.0113 s⁻¹ | 80600 M⁻¹ s⁻¹ |  |  |  |  |  | 
B5 | 0.09 pM | 88.5% | 388 pg/mL | 4180 pg/mL | 41 pg/mL | 613 pg/mL | 1.3 fold | 28.1 nM | 0.00252 s⁻¹ | 89300 M⁻¹ s⁻¹ |  |  |  |  |  | 
